This assay has as its target Hsf1-13xMyc (S. cerevisiae) (UniProt P10961). Description: cross-linking; in vivo site-specific photo-crosslinking (UV-A, 1 hr on ice) from pBPa at position 423 of Ssa1-HA; cells grown at 30 C or heat shocked 3 min at 43 C; western with anti-HA and anti-Myc.

Experimental findings from article PMC6779467 are described below.

For “Ssa1_(E423BPa)-HA (from UniProt P10591 1-642) (natural protein)”, the decrease of Hsf1-Ssa1 crosslinking after heat shock (3 min at 43 C) against cells at 30 C is 77%.
